Experimental data taken from patent US20240391950A1, “PEPTIDE CROSSLINKING AGENT AND CROSSLINKED PEPTIDE WHICH IS CROSSLINKED USING SAID CROSSLINKING AGENT” (Kagoshima University, priority 2020, published 2024).
Blank lines part the entries; values can stand above or below the binder they belong to. Positions of bridges follow the written chain, without caps; N, C: chain ends. No end group written: not given here.

What was measured:
[1] = target: human serum-derived IgG (manufactured by Sigma-Aldrich Co. LLC); assay: 1 mL column with 1 mg peptide immobilised, human serum IgG; 5 washes with 0.1 N NaOH
[2] = target: human serum-derived IgG (manufactured by Sigma-Aldrich Co. LLC); assay: 1 mL column with 1 mg peptide immobilised, human serum IgG; 1 wash with 0.1 N NaOH
[3] = target: human IgG1 (human); assay: SPR, BIAcore T200, IgG immobilised on CM5 chip; the text value differs from Table 1 (8.0)
[4] = target: human serum-derived IgG (manufactured by Sigma-Aldrich Co. LLC); assay: 1 mL column with 1 mg peptide immobilised, human serum IgG, 10% breakthrough; 1 wash with 0.1 N NaOH
[5] = target: human serum-derived IgG (manufactured by Sigma-Aldrich Co. LLC); assay: 1 mL column with 1 mg peptide immobilised, human serum IgG, 10% breakthrough; 5 washes with 0.1 N NaOH
[6] = target: human IgG1 (human); assay: SPR, BIAcore T200, IgG immobilised on CM5 chip, peptide as analyte
[7] = target: human serum-derived IgG (manufactured by Sigma-Aldrich Co. LLC); assay: 1 mL column with 1 mg peptide immobilised, human serum IgG 1 mg/mL at 1 mL/min; 1 wash with 0.1 N NaOH
[8] = target: human serum-derived IgG (manufactured by Sigma-Aldrich Co. LLC); assay: 1 mL column with 1 mg peptide immobilised, human serum IgG 1 mg/mL at 1 mL/min; 5 washes with 0.1 N NaOH
[9] = target: human serum-derived IgG (manufactured by Sigma-Aldrich Co. LLC); assay: 1 mL column with 1 mg peptide immobilised, human serum IgG, 10% breakthrough; 2 washes with 0.1 N NaOH
[10] = target: human serum-derived IgG (manufactured by Sigma-Aldrich Co. LLC); assay: 1 mL column with 1 mg peptide immobilised, human serum IgG 1 mg/mL at 1 mL/min; 30 washes with 0.1 N NaOH
[11] = target: human serum-derived IgG (manufactured by Sigma-Aldrich Co. LLC); assay: 1 mL column with 1 mg peptide immobilised, human serum IgG 1 mg/mL at 1 mL/min; 2 washes with 0.1 N NaOH
[12] = target: human serum-derived IgG (manufactured by Sigma-Aldrich Co. LLC); assay: peptide-immobilised column, human serum IgG, 10% breakthrough
[13] = target: human serum-derived IgG (manufactured by Sigma-Aldrich Co. LLC); assay: 1 mL column with 1 mg peptide immobilised, human serum IgG; 3 washes with 0.1 N NaOH
[14] = target: human serum-derived IgG (manufactured by Sigma-Aldrich Co. LLC); assay: 1 mL column with 1 mg peptide immobilised, human serum IgG, 10% breakthrough; 3 washes with 0.1 N NaOH
[15] = target: human serum-derived IgG (manufactured by Sigma-Aldrich Co. LLC); assay: 1 mL column with 1 mg peptide immobilised, human serum IgG, 10% breakthrough; 20 washes with 0.1 N NaOH
[16] = target: human serum-derived IgG (manufactured by Sigma-Aldrich Co. LLC); assay: 1 mL column with 1 mg peptide immobilised, human serum IgG, 10% breakthrough; 10 washes with 0.1 N NaOH
[17] = target: human serum-derived IgG (manufactured by Sigma-Aldrich Co. LLC); assay: 1 mL column with 1 mg peptide immobilised, human serum IgG 1 mg/mL at 1 mL/min; 3 washes with 0.1 N NaOH
[18] = target: human serum-derived IgG (manufactured by Sigma-Aldrich Co. LLC); assay: 1 mL column with 1 mg peptide immobilised, human serum IgG; 20 washes with 0.1 N NaOH
[19] = target: human IgG1 (human); assay: SPR, BIAcore T200, IgG immobilised on CM5 chip
[20] = target: human serum-derived IgG (manufactured by Sigma-Aldrich Co. LLC); assay: 1 mL column with 1 mg peptide immobilised, human serum IgG 1 mg/mL at 1 mL/min; 4 washes with 0.1 N NaOH
[21] = target: human serum-derived IgG (manufactured by Sigma-Aldrich Co. LLC); assay: 1 mL column with 1 mg peptide immobilised, human serum IgG; 30 washes with 0.1 N NaOH
[22] = target: human serum-derived IgG (manufactured by Sigma-Aldrich Co. LLC); assay: 1 mL column with 1 mg peptide immobilised, human serum IgG, 10% breakthrough; 30 washes with 0.1 N NaOH
[23] = target: human serum-derived IgG (manufactured by Sigma-Aldrich Co. LLC); assay: 1 mL column with 1 mg peptide immobilised, human serum IgG 1 mg/mL at 1 mL/min; 10 washes with 0.1 N NaOH
[24] = target: human serum-derived IgG (manufactured by Sigma-Aldrich Co. LLC); assay: 1 mL column with 1 mg peptide immobilised, human serum IgG, 10% breakthrough; 4 washes with 0.1 N NaOH
[25] = target: human serum-derived IgG (manufactured by Sigma-Aldrich Co. LLC); assay: 1 mL column with 1 mg peptide immobilised, human serum IgG; 10 washes with 0.1 N NaOH
[26] = target: human serum-derived IgG (manufactured by Sigma-Aldrich Co. LLC); assay: 1 mL column with 1 mg peptide immobilised, human serum IgG 1 mg/mL at 1 mL/min; 20 washes with 0.1 N NaOH
[27] = target: human serum-derived IgG (manufactured by Sigma-Aldrich Co. LLC); assay: 1 mL column with 1 mg peptide immobilised, human serum IgG; 2 washes with 0.1 N NaOH
[28] = target: human serum-derived IgG (manufactured by Sigma-Aldrich Co. LLC); assay: 1 mL column with 1 mg peptide immobilised, human serum IgG; 4 washes with 0.1 N NaOH

Variation (%) in maximum binding capacity [1]: 49.2%
Variation (%) in maximum binding capacity [2]: 100%
Kd [3]: 8.2 nM
Dynamic binding capacity [4]: 17.2 mg/mL
Variation (%) in dynamic binding capacity [4]: 100%
Dynamic binding capacity [5]: 8.74 mg/mL
Variation (%) in dynamic binding capacity [5]: 50.7%
Kd [6]: 8 nM
Maximum binding capacity [7]: 12.4 mg
Maximum binding capacity [8]: 6.09 mg
Binder: GSGGSGPDCAYHRGELVWCTFH (disulfide 9-19 (inferred); not fully specified) [IgG-BP-LongGS, original IgG-binding peptide having a disulfide bond (GSGGS-…)]

Dynamic binding capacity [9]: 12.8 mg/mL
Variation (%) in dynamic binding capacity [9]: 100%
Maximum binding capacity [10]: 8.78 mg
Maximum binding capacity [11]: 9.7 mg
DBC relative to the original IgG-binding peptide-immobilized column [12]: 74%
Variation (%) in maximum binding capacity [13]: 102%
Dynamic binding capacity [14]: 12.2 mg/mL
Variation (%) in dynamic binding capacity [14]: 95.3%
Dynamic binding capacity [15]: 12.4 mg/mL
Variation (%) in dynamic binding capacity [15]: 96.9%
Variation (%) in maximum binding capacity [1]: 103%
Dynamic binding capacity [16]: 12.2 mg/mL
Variation (%) in dynamic binding capacity [16]: 95.3%
Maximum binding capacity [17]: 9.88 mg
Variation (%) in maximum binding capacity [18]: 86.3%
fold reduction of affinity against the original peptide [19]: 5 fold
Maximum binding capacity [20]: 10.1 mg
Variation (%) in maximum binding capacity [21]: 90.7%
Variation (%) in maximum binding capacity [2]: 100%
Dynamic binding capacity [22]: 11.6 mg/mL
Variation (%) in dynamic binding capacity [22]: 90.6%
Dynamic binding capacity [4]: 12.8 mg/mL
Variation (%) in dynamic binding capacity [4]: 100%
Maximum binding capacity [23]: 9.32 mg
Dynamic binding capacity [5]: 12.4 mg/mL
Variation (%) in dynamic binding capacity [5]: 96.9%
Dynamic binding capacity [24]: 12.2 mg/mL
Variation (%) in dynamic binding capacity [24]: 95.3%
Variation (%) in maximum binding capacity [25]: 96.3%
Kd [6]: 45.6 nM
Maximum binding capacity [7]: 9.68 mg
Maximum binding capacity [26]: 8.35 mg
Variation (%) in maximum binding capacity [27]: 100%
Maximum binding capacity [8]: 9.93 mg
Variation (%) in maximum binding capacity [28]: 104%
B1: 1,1-dichloroacetone-crosslinked cyclic peptide of IgG-BP-LongGS (peptide)
peptide: GSGGSGPDCAYHRGELVWCTFH
modifications: not fully specified; the thiol groups of the two Cys residues crosslinked with 1,1-dichloroacetone (1,1-Dichloro-2-propanone) in place of the disulfide bond; Fmoc removed
